Tests used:
[1] = molecular target: N-terminal FLAG-tagged SMAD4 (UniProt Q13485); assay: co-IP; HEK293T cells transfected with FLAG-tagged SMAD4 (or its deletion constructs) and AR constructs, treated with DHT 10 nM and BMP7 50 ng/mL for 12 h; nuclear extracts incubated overnight at 4 °C with anti-FLAG or anti-AR antibody (IgG isotype as control) on protein G Dynabeads; Western blot for AR and SMAD4
AR65Q (human) = AR65Q (human) (UniProt P10275); assay: co-IP; cell-free ('in vitro pull-down'): FLAG-SMAD4 (TNT wheat germ) and GST-AR constructs (E. coli S30) in vitro translated, equal amounts mixed overnight at 4 °C, captured with anti-GST antibody on protein G Dynabeads, Western blot with anti-FLAG

binding compared to wild type [1] [%]	binding compared to wild type (AR65Q (human)) [%]	Substance
50	–	AR100Q (from UniProt P10275 1-920) (natural protein)
–	70	FLAG-tagged SMAD4, in vitro translated (from UniProt Q13485 1-552) (natural protein)

Source: PMC9107400
